B3: Human Tie2 ECD (residues 23-735 of human Tie2) (receptor, UniProt Q02763 23-735, looked up)
chain: AMDLILINSLPLVSDAETSLTCIASGWRPHEPITIGRDFEALMNQHQDPLEVTQDVTREWAKKVVWKREKASKINGAYFCEGRVRGEAIRIRTMKMRQQASFLPATLTMTVDKGDNVNISFKKVLIKEEDAVIYKNGSFIHSVPRHEVPDILEVHLPHAQPQDAGVYSARYIGGNLFTSAFTRLIVRRCEAQKWGPECNHLCTACMNNGVCHEDTGECICPPGFMGRTCEKACELHTFGRTCKERCSGQEGCKSYVFCLPDPYGCSCATGWKGLQCNEACHPGFYGPDCKLRCSCNNGEMCDRFQGCLCSPGWQGLQCEREGIQRMTPKIVDLPDHIEVNSGKFNPICKASGWPLPTNEEMTLVKPDGTVLHPKDFNHTDHFSVAIFTIHRILPPDSGVWVCSVNTVAGMVEKPFNISVKVLPKPLNAPNVIDTGHNFAVINISSEPYFGDGPIKSKKLLYKPVNHYEAWQHIQVTNEIVTLNYLEPRTEYELCVQLVRRGEGGEGHPGPVRRFTTASIGLPPPRGLNLLPKSQTTLNLTWQPIFPSSEDDFYVEVERRSVQKSDQQNIKVPGNLTSVLLNNLHPREQYVVRARVNTKAQGEWSEDLTAWTLSDILPPQPENIKISNITHSSAVISWTILDGYSISSITIRYKVQGKNEDQHVDVKIKNATITQYQLKGLEPETAYQVDIFAENNIGSSNPAFSHELVTLPES
notes: range 23-735; also called hTie2 ECD; hTie2

How the values were obtained:
[1] = biological target: B3; assay: SPR (Biacore), hTie2 ECD immobilised on the chip (y axis 'RU (Tie2 ECD)'), antibody as analyte at 128, 256, 512, 1024 and 2048 nM, 1:1 binding model [panel i]
[2] = biological target: T1, hTie2 Ig3-Fn3 D682C/N691C (constitutive Tie2 dimer) (human, UniProt Q02763 349-738, Covalent homodimer: two copies of this chain joined by two intermolecular disulfide bonds between the introduced cysteines (C682 of one chain with C691 of the other); one copy is given.); assay: size-exclusion chromatography and negative-stain EM of the complex
T1 construct: The positions count on full-length human Tie2; the Ig3-Fn3 entry is used; also called Tie2 dimeric mutant; hTie2 Ig3-Fn3 N691C/D682C
T1 chain: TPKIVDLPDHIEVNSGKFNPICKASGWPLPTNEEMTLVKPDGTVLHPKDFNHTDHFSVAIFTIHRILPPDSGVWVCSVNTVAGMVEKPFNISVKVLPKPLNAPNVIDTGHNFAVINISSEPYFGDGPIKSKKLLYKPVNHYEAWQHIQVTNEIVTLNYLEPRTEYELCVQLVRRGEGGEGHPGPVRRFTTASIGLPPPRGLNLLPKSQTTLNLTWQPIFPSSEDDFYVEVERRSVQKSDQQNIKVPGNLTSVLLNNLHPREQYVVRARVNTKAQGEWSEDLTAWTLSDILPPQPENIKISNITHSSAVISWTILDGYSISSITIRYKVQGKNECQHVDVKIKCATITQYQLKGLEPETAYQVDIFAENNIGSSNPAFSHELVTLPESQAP
Description: The two residues D682 and N691 involved in the homotypic Fn3-Fn3′ interaction were mutated to cysteines (D682C and N691C) to introduce a disulfide bond (FIGS. 6d and e). […] After removal of aggregates by SEC, the structural arrangement of the resulting complex (peak of the shoulder) was examined using negative-stain electron microscopy (EM) (FIGS. 6f and 7).

[3] = biological target: B3; assay: SPR (Biacore T200), hTie2 ECD amine-coupled on CM5, antibody as analyte, 1:1 model
Description: HEPES-buffered saline (0.01 M HEPES and 0.15 M NaCl) containing 3 mM EDTA (ethylenediaminetetraacetic acid) and 0.05% (v/v) P20 detergent (HBS-EP+) was used as reaction and running buffer (BR100669, GE Healthcare). Human Tie2 ECD (produced in-house; residues 23-735 of human Tie2, GenBank accession number: AAH35514.2) was immobilized on the surface of a CM5 sensor chip by amine coupling using 10 mM acetate at a pH of 5.5. […] Analytes bound to the sensor chips were dissociated by washing with HBS-EP+running buffer for 300 seconds. Both association (Kₒₙ, M⁻¹s⁻¹) and dissociation (Koff, s⁻¹) constants were measured at 300-second intervals. The equilibrium dissociation constant (KD, M) was calculated as the ratio of off-rate to on-rate (Koff/kₒₙ). Kinetic parameters were determined with the global fitting function of Biacore Insight Evaluation Software using a 1:1-binding model.
After purification, binding kinetics of the obtained antibodies to hTie2 ECD were evaluated using SPR.

[4] = biological target: the molecule itself; assay: SEC-MALS (self-association)

B1: 3H7H12G4 (previously reported humanized antibody 3H7) (antibody, V domains shown)
VH: QVQLVQSGAEVKKPGASVKVSCKASGYTFTSYWMNWVRQAPGQGLEWMGMIHPSDSETRLNQKFMDRVTMTRDTSTSTVYMELSSLRSEDTAVYYCARGLYGNSWGQGTLVTVSS
VL: DIQMTQSPSSLSASVGDRVTITCRASQDIGISLNWLQQEPGKAPKRLIYATSSLDSGVPKRFSGSGSGTEFTLTISSLQPEDFATYYCLQYASSPYTFGQGTKVEIK
Kd [1]: 1100 nM
koff [1]: 0.003 s⁻¹
kon [1]: 2800 M⁻¹ s⁻¹

B2: hTAAB, hTie2-activating mouse monoclonal antibody (mouse IgG1) (antibody, V domains shown)
VH: QVQLQQPGAELVRPGASVKLSCKASGYSFTSYWMNWVKQRPGQGLEWIGMIHPSDSETRLNQKFMDKATLTVDKSSSTAYMQLSSPTSEDSAVYYCARGLYGNSWGQGTLVTVSA
VL: DIQMTQSPSSLSASLGERVSLTCRASQDIGISLNWLQQEPDGTIKRLIYATSSLDSGVPKRFSGSRSGSDYSLTISSLESEDFVDYYCLQYASSPYTFGGGTKLEIK
notes: Mouse IgG1 from hybridoma; Only the variable regions are tied to the whole antibody; also called mouse hTAAB; parental hTAAB
binding result [2]: binds
Kd [3]: 4.2 nM
koff [3]: 0.0006 s⁻¹
kon [3]: 140000 M⁻¹ s⁻¹

B3
binding result [4]: no binding (tested: 1 mg/ml)

— US20240254240A1 (INSTITUTE FOR BASIC SCIENCE, published 2024)
